Results reported in US20160136236A1.

Legend:
[1] = biological target: wild type (WT) human low density lipoprotein receptor (LDLR) (human) (UniProt P01130); test: flow cytometry competition; 0.5 ug/mL LDL-BODIPY with 0.5 ug/mL unlabeled LDL on HEK293 cells transfected with LDLR mRNA
[2] = biological target: wild type (WT) human low density lipoprotein receptor (LDLR) (human) (UniProt P01130); test: flow cytometry competition; 0.5 ug/mL LDL-BODIPY with 1 ug/mL unlabeled LDL on HEK293 cells transfected with LDLR mRNA
[3] = biological target: wild type (WT) human low density lipoprotein receptor (LDLR) (human) (UniProt P01130); test: flow cytometry competition; 0.5 ug/mL LDL-BODIPY with 0.1 ug/mL unlabeled LDL on HEK293 cells transfected with LDLR mRNA
[4] = biological target: wild type (WT) human low density lipoprotein receptor (LDLR) (human) (UniProt P01130); test: flow cytometry competition; 0.5 ug/mL LDL-BODIPY with 100 ug/mL unlabeled LDL on HEK293 cells transfected with LDLR mRNA
[5] = biological target: wild type (WT) human low density lipoprotein receptor (LDLR) (human) (UniProt P01130); test: flow cytometry competition; 0.5 ug/mL LDL-BODIPY with 0.01 ug/mL unlabeled LDL on HEK293 cells transfected with LDLR mRNA
[6] = biological target: wild type (WT) human low density lipoprotein receptor (LDLR) (human) (UniProt P01130); test: flow cytometry competition; 0.5 ug/mL LDL-BODIPY with 500 ug/mL unlabeled LDL on HEK293 cells transfected with LDLR mRNA
[7] = biological target: wild type (WT) human low density lipoprotein receptor (LDLR) (human) (UniProt P01130); test: flow cytometry competition; 0.5 ug/mL LDL-BODIPY with 10 ug/mL unlabeled LDL on HEK293 cells transfected with LDLR mRNA
[8] = biological target: wild type (WT) human low density lipoprotein receptor (LDLR) (human) (UniProt P01130); test: flow cytometry competition; 0.5 ug/mL LDL-BODIPY with 0 ug/mL unlabeled LDL on HEK293 cells transfected with LDLR mRNA

Sequence of wild type (WT) human low density lipoprotein receptor (LDLR) (human) (P01130 22-860 limits assumed): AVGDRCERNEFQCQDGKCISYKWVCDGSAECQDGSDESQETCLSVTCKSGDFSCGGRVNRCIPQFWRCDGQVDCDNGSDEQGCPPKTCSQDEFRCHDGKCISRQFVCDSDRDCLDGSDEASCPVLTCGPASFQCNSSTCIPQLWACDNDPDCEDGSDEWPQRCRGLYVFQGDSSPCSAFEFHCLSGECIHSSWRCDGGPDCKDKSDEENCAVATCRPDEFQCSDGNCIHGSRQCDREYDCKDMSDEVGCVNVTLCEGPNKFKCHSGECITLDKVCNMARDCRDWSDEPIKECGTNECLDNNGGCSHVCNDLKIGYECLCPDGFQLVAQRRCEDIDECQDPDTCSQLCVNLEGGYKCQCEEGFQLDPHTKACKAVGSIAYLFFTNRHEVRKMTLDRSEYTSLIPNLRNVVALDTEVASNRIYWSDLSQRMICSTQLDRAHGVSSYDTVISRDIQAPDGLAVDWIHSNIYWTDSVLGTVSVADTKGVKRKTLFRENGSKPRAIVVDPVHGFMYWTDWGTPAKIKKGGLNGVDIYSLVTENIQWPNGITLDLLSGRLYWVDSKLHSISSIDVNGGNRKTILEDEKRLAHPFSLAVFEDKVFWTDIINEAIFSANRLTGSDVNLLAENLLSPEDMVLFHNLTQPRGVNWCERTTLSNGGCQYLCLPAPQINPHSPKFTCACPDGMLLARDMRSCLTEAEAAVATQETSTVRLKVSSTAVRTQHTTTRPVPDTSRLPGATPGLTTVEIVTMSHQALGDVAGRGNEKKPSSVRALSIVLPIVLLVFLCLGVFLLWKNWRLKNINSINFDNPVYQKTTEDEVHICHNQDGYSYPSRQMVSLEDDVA

Labeled cells detected (%) [1]: 64.1%
Labeled cells detected (%) [2]: 76%
Labeled cells detected (%) [3]: 59%
Labeled cells detected (%) [4]: 3.2%
Labeled cells detected (%) [5]: 97.7%
Labeled cells detected (%) [6]: 0.9%
Labeled cells detected (%) [7]: 48.4%
Labeled cells detected (%) [8]: 100%
Substance: unlabeled LDL (low density lipoprotein), P04114 28-4563
